Molecular target: T1, RoxP_HypProt_pET-22b
T1 construct: also called RoxP_6
T1 single chain: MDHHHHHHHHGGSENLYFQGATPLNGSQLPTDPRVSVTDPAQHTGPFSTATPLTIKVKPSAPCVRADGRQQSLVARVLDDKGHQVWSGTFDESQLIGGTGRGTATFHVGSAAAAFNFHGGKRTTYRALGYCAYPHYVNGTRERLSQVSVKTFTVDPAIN
Assay: indirect ELISA on recombinant RoxP orthologs, absorbance normalized (%)

B1: 2H2F3 (antibody, V domains shown)
VH: QVQLQQSGAELVRPGVSVKISCKGSGYTFTDYAMHWVKQSHAKSLEWIGIISTYYGNASYNQKFKGKATMTVDKSSSTAYMELARLTSEDSAIYYCARVPYYGSSYAMDYWGQGTSVTVSS
VL: DVLMTQTPLSLPVSLGDQASISCRSSQNIVHSDGNTYLEWYLQKPGQSPKLLIYKVSNRFSGVPDRFSGSGSGTDFTLKISRVEAEDLGVYYCFQGSHVPWTFGGGTKLEIK
notes: also called IgG-2H2F3-1; 2H2F3-1
**Q.** Does B1 bind?
**A.** Result: no binding (tested: 330 ng/ml)

— patent US20240400656A1 (WASHINGTON UNIVERSITY, published 2024)
